Results taken from patent US20060014678A1 (IMPERIAL INNOVATIONS, published 2006).
No end group written: not given here.

Biological target: T1, NPY Y2 receptor
T1 chain: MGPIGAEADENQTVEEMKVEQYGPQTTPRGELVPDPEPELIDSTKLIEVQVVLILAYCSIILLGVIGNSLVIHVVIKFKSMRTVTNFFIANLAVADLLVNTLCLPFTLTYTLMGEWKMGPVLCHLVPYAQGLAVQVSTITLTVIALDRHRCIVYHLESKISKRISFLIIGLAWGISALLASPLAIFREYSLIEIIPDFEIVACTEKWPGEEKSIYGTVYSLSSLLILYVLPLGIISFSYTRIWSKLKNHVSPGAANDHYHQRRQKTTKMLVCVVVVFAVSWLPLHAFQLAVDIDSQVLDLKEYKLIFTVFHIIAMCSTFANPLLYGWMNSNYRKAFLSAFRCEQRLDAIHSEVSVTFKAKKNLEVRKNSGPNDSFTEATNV
Assay: receptor-binding study on a cell line expressing the NPY Y2 receptor

IC50: 1.3 nM
B1: N-acetyl (Leu^28, Leu^31) NPY (24-36) (peptide)
peptide: Ac-LRHYLNLLTRQRY
modifications: ends and bridges not checked
notes: also called Y2A; Y2R selective agonist
